The values below come from paper PMC9082959, “Mechanism of Assembly of the Non-Covalent Spectrin Tetramerization Domain from Intrinsically Disordered Partners” (Journal of molecular biology, 2013).

Substitutions are numbered along the chain they refer to.

Experiment in all cases: ITC; β16β17 at 25–50 μM in the cell titrated with 15–20 injections to 2–2.5 eq of α0α1; one-site binding model; PBS (50 mM sodium phosphate, 150 mM NaCl, pH 7.04), 25 °C; mutants only against the wild-type partner
Holding throughout (conditions): both partners purified
(ITC needs no label: the signal is the heat of the interaction.)

For one assay, the target named is T1, β16β17 A50G (human, UniProt P11277 1898-2083, A2053G).
T1 construct: erythrocyte β-spectrin, human, residues 1898-2083 (β16β17); mutant of m2; also called A2053G; source: E. coli C41(DE3), purified (Ni2+ agarose, thrombin cleavage, gel filtration)
T1 sequence (looked up): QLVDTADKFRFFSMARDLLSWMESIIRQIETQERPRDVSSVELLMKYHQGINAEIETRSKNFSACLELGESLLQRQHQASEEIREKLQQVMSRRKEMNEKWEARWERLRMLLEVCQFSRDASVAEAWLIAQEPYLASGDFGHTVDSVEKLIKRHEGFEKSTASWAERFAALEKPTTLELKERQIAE

In the next assay the target is T2, β16β17 S57A (human, UniProt P11277 1898-2083, S2060A).
T2 construct: erythrocyte β-spectrin, human, residues 1898-2083 (β16β17); mutant of m2; also called S2060A; source: E. coli C41(DE3), purified (Ni2+ agarose, thrombin cleavage, gel filtration)
T2 sequence (looked up): T1 sequence (looked up) with G156A, S163A

The target of a further assay is T3, β16β17 S16G (human, UniProt P11277 1898-2083, S2019G).
T3 construct: erythrocyte β-spectrin, human, residues 1898-2083 (β16β17); mutant of m2; also called S2019G; source: E. coli C41(DE3), purified (Ni2+ agarose, thrombin cleavage, gel filtration)
T3 sequence (looked up): T1 sequence (looked up) with S122G, G156A

The target of the next assay is T4, β16β17 C9A (human, UniProt P11277 1898-2083, C2012A).
T4 construct: erythrocyte β-spectrin, human, residues 1898-2083 (β16β17); mutant of m2; also called C2012A; source: E. coli C41(DE3), purified (Ni2+ agarose, thrombin cleavage, gel filtration)
T4 sequence (looked up): T1 sequence (looked up) with C115A, G156A

A further assay concerns the target T5, β16β17 Y28A (human, UniProt P11277 1898-2083, Y2031A).
T5 construct: erythrocyte β-spectrin, human, residues 1898-2083 (β16β17); mutant of m2; also called Y2031A; source: E. coli C41(DE3), purified (Ni2+ agarose, thrombin cleavage, gel filtration)
T5 sequence (looked up): T1 sequence (looked up) with Y134A, G156A

The next assay addresses T6, β16β17 Q25A (human, UniProt P11277 1898-2083, Q2028A).
T6 construct: erythrocyte β-spectrin, human, residues 1898-2083 (β16β17); mutant of m2; also called Q2028A; source: E. coli C41(DE3), purified (Ni2+ agarose, thrombin cleavage, gel filtration)
T6 sequence (looked up): T1 sequence (looked up) with Q131A, G156A

B1: α0α1 (erythrocyte α-spectrin residues 2–163), wild type (domain or fragment, human, UniProt P02549 2-163, looked up)
chain: EQFPKETVVESSGPKVLETAEEIQERRQEVLTRYQSFKERVAERGQKLEDSYHLQVFKRDADDLGKWIMEKVNILTDKSYEDPTNIQGKYQKHQSLEAEVQTKSRLMSELEKTREERFTMGHSAHEETKAHIEELRHLWDLLLELTLEKGDQLLRALKFQQY
notes: synthetic gene (GenScript) in a modified pRSETA plasmid; also called α1α0; source: E. coli C41(DE3), purified (Ni2+ agarose, thrombin cleavage, gel filtration)
In the case of B1, the Ka in the assay with β16β17 A50G was 163000 M⁻¹; with β16β17 S57A it was 1.5e+06 M⁻¹; with β16β17 S16G it was 360000 M⁻¹; with β16β17 C9A, 2.7e+06 M⁻¹; with β16β17 Y28A it was 180000 M⁻¹; with β16β17 Q25A, 120000 M⁻¹.
